Experimental data as given in PMC11584650, “An inhibitory segment within G-patch activators tunes Prp43-ATPase activity during ribosome assembly” (Nature Communications, 2024).

Substrate: Nc1ncnc2c1ncn2[C@@H]1O[C@H](COP(=O)(O)OP(=O)(O)OP(=O)(O)O)[C@@H](O)[C@H]1O
Assay: pyruvate kinase/lactate dehydrogenase coupled NADH assay, Michaelis-Menten fit
Assay type: biochemical, Saccharomyces cerevisiae
Conditions: no RNA, 20 mM MgCl2, 50 mM Hepes pH 7.5, 200 mM KCl, room temperature, ATP up to 2.5 mM
Text: pyruvate kinase/lactate dehydrogenase coupled NADH assay, Michaelis-Menten fit on Prp43 | We obtained kinetic parameters for the ATPase activities of Prp43, Prp43:Tma23^M and Ppr43:Pxr1^M complexes

B1: Prp43 (Saccharomyces cerevisiae S288C) (protein)
chain: MGSKRRFSSEHPDPVETSIPEQAAEIAEELSKQHPLPSEEPLVHHDAGEFKGLQRHHTSAEEAQKLEDGKINPFTGREFTPKYVDILKIRRELPVHAQRDEFLKLYQNNQIMVFVGETGSGKTTQIPQFVLFDEMPHLENTQVACTQPRRVAAMSVAQRVAEEMDVKLGEEVGYSIRFENKTSNKTILKYMTDGMLLREAMEDHDLSRYSCIILDEAHERTLATDILMGLLKQVVKRRPDLKIIIMSATLDAEKFQRYFNDAPLLAVPGRTYPVELYYTPEFQRDYLDSAIRTVLQIHATEEAGDILLFLTGEDEIEDAVRKISLEGDQLVREEGCGPLSVYPLYGSLPPHQQQRIFEPAPESHNGRPGRKVVISTNIAETSLTIDGIVYVVDPGFSKQKVYNPRIRVESLLVSPISKASAQQRAGRAGRTRPGKCFRLYTEEAFQKELIEQSYPEILRSNLSSTVLELKKLGIDDLVHFDFMDPPAPETMMRALEELNYLACLDDEGNLTPLGRLASQFPLDPMLAVMLIGSFEFQCSQEILTIVAMLSVPNVFIRPTKDKKRADDAKNIFAHPDGDHITLLNVYHAFKSDEAYEYGIHKWCRDHYLNYRSLSAADNIRSQLERLMNRYNLELNTTDYESPKYFDNIRKALASGFFMQVAKKRSGAKGYITVKDNQDVLIHPSTVLGHDAEWVIYNEFVLTSKNYIRTVTSVRPEWLIEIAPAYYDLSNFQKGDVKLSLERIKEKVDRLNELKQGKNKKKSKHSKK
notes: full-length His6-tagged Prp43, expressed in E. coli BL21(DE3)*, Ni-NTA and size exclusion
Km: 19.04 ± 7.11 µM
kcat: 0.0318 ± 0.0005 s⁻¹
